Patent publication US20170081400A1 (CEPHALON, published 2017)
Where a chain is given by its changes, count along the chain named. Values belong to the binder of their own block, whether it stands above or below them.

Tests used:
[1] = molecular target: T1, human TL1A extracellular domain with N-terminal HIS and FLAG tag (human) (UniProt O95150); assay: cell-based or functional assay
T1 sequence: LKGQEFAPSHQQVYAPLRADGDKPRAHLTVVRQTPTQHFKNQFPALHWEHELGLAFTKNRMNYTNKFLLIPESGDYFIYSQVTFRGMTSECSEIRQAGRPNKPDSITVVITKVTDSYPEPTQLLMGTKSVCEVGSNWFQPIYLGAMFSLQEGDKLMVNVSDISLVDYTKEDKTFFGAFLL

[2] = molecular target: T2, human TL1A extracellular domain with N-terminal HIS and FLAG tag (human, UniProt O95150 72-251); assay: SPR Run 4, purified Ab captured on Protein A, TL1A 5 ug/mL, timepoint 220
T2 construct: the whole entry is named
T2 sequence: T1 sequence
Description: (§1) 1.5. Antibody expression and antigen binding as determined by SPR. Using a CM5 sensor chip (GE Healthcare) Protein A (Pierce) was coupled to the chip surface using an amine coupling kit (GE Healthcare). Protein A was coupled on flow cell 1 and 2 (or alternatively 3 and 4) using a BIACORE® T200. […] The amount of supernatant or purified protein (as well as the concentration) injected during the capture stage varied between runs and is specified in the header of the Tables 3-11. At the end of injection of the supernatant or purified antibody the change in response units was measured. This value was reported as Capture Level in Tables 3-11. […] The response units were measured prior to the end of the dissociation phase. […] The sensorgrams were double referenced (flow cell 2 is subtracted from flow cell 1 and a buffer blank). As there were a large number of antibody variants to screen, these were screened across different runs (Tables 3-11). […] A summary of the conditions used in each run is below:
(§2) 2.1. […] In some experiment the antibodies were purified using Protein A chromatography (See 1.4) and purified antibodies were used in BIACORE® (GE Healthcare) experiments.

[3] = molecular target: T2, human TL1A extracellular domain with …; assay: SPR Run 4, purified Ab captured on Protein A, TL1A 5 ug/mL, timepoint 44
Description: as §1, §2

[4] = molecular target: T2, human TL1A extracellular domain with …; assay: SPR Run 6, purified Ab captured on Protein A, TL1A 5 ug/mL, timepoint 170
Description: as §1, §2

[5] = molecular target: T2, human TL1A extracellular domain with …; assay: SPR Run 6, purified Ab captured on Protein A, TL1A 5 ug/mL, timepoint 44
Description: as §1, §2

Antibody IC50, TL1A induced caspase potency assay in TF-1 cells [1]: 0.02 µg/mL
Fold improvement over 320-179, TL1A induced caspase potency assay in TF-1 cells [1]: 2 fold
TL1A Binding Level (Late) [2]: 132 RU
TL1A Binding Level (Early) [3]: 141 RU
B1: 320-313 (antibody, human IgG1, name in Kabat numbering, V domains shown)
VH: QVQLVQSGAEVKKPGASVKVSCKASGYTFTSYDINWVRQAPGQGLEWMGWLNPNSGNTGYAQKFQGRVTMTADRSTSTAYMELSSLRSEDTAVYYCAREVPETAAFEYWGQGTLVTVSS
VL: QSVLTQPPSVSGAPGQRVTISCTSSSSDIGAGLGVHWYQQLPGTAPKLLIEGYYNRPSGVPDRFSGSKSGTSASLTITGLLPEDEGDYYCHSYDGTLSALFGGGTKLTVLG
notes: human IgG1, lambda

TL1A Binding Level (Late) [2]: 109 RU
TL1A Binding Level (Early) [3]: 124 RU
B2: 320-364 (antibody, human IgG1, name in Kabat numbering, V domains shown)
VH: B1 VH
VL: B1 VL with H91Q, S98A
notes: human IgG1, lambda

TL1A Binding Level (Late) [4]: 95 RU
TL1A Binding Level (Early) [5]: 107 RU
B3: 320-444 (antibody, human IgG1, name in Kabat numbering, V domains shown)
VH: B1 VH with Y32L
VL: B1 VL with H91Q
notes: human IgG1, lambda

TL1A Binding Level (Late) [4]: 108 RU
TL1A Binding Level (Early) [5]: 119 RU
B4: 320-439 (antibody, human IgG1, name in Kabat numbering, V domains shown)
VH: B1 VH with Y32S
VL: B1 VL with H91Q
notes: human IgG1, lambda

Antibody IC50, TL1A induced caspase potency assay in TF-1 cells [1]: 0.02 µg/mL
Fold improvement over 320-179, TL1A induced caspase potency assay in TF-1 cells [1]: 1 fold
TL1A Binding Level (Late) [2]: 146 RU
TL1A Binding Level (Early) [3]: 155 RU
B5: 320-328 (antibody, human IgG1, name in Kabat numbering, V domains shown)
VH: B1 VH
VL: B1 VL with H91Q, Y93H
notes: human IgG1, lambda

TL1A Binding Level (Late) [4]: 67 RU
TL1A Binding Level (Early) [5]: 80 RU
B6: 320-441 (antibody, human IgG1, name in Kabat numbering, V domains shown)
VH: B1 VH with Y32D
VL: B1 VL with H91Q
notes: human IgG1, lambda

TL1A Binding Level (Late) [2]: 39 RU
TL1A Binding Level (Early) [3]: 66 RU
B7: 320-370 (antibody, human IgG1, name in Kabat numbering, V domains shown)
VH: B1 VH
VL: B1 VL with H91Q, S98W
notes: human IgG1, lambda

TL1A Binding Level (Late) [2]: 116 RU
TL1A Binding Level (Early) [3]: 119 RU
B8: 320-367 (antibody, human IgG1, name in Kabat numbering, V domains shown)
VH: B1 VH
VL: B1 VL with H91Q, S98H
notes: human IgG1, lambda

Antibody IC50, TL1A induced caspase potency assay in TF-1 cells [1]: 0.02 µg/mL
Fold improvement over 320-179, TL1A induced caspase potency assay in TF-1 cells [1]: 2 fold
TL1A Binding Level (Late) [2]: 158 RU
TL1A Binding Level (Early) [3]: 165 RU
B9: 320-314 (antibody, human IgG1, name in Kabat numbering, V domains shown)
VH: B1 VH
VL: B1 VL with H91K
notes: human IgG1, lambda

Antibody IC50, TL1A induced caspase potency assay in TF-1 cells [1]: 0.03 µg/mL
Fold improvement over 320-179, TL1A induced caspase potency assay in TF-1 cells [1]: 2 fold
TL1A Binding Level (Late) [2]: 120 RU
TL1A Binding Level (Early) [3]: 126 RU
B10: 320-326 (antibody, human IgG1, name in Kabat numbering, V domains shown)
VH: B1 VH
VL: B1 VL with H91Q, Y93S
notes: human IgG1, lambda

TL1A Binding Level (Late) [2]: 53 RU
TL1A Binding Level (Early) [3]: 86 RU
B11: 320-360 (antibody, human IgG1, name in Kabat numbering, V domains shown)
VH: B1 VH
VL: B1 VL with H91Q, L97Q
notes: human IgG1, lambda

TL1A Binding Level (Late) [4]: 106 RU
TL1A Binding Level (Early) [5]: 116 RU
B12: 320-432 (antibody, human IgG1, name in Kabat numbering, V domains shown)
VH: B1 VH with S31Q
VL: B1 VL with H91Q
notes: human IgG1, lambda

TL1A Binding Level (Late) [2]: 26 RU
TL1A Binding Level (Early) [3]: 50 RU
B13: 320-368 (antibody, human IgG1, name in Kabat numbering, V domains shown)
VH: B1 VH
VL: B1 VL with H91Q, S98K
notes: human IgG1, lambda

TL1A Binding Level (Late) [4]: 83 RU
TL1A Binding Level (Early) [5]: 90 RU
B14: 320-433 (antibody, human IgG1, name in Kabat numbering, V domains shown)
VH: B1 VH with S31D
VL: B1 VL with H91Q
notes: human IgG1, lambda

TL1A Binding Level (Late) [4]: 118 RU
TL1A Binding Level (Early) [5]: 129 RU
B15: 320-436 (antibody, human IgG1, name in Kabat numbering, V domains shown)
VH: B1 VH with S31W
VL: B1 VL with H91Q
notes: human IgG1, lambda

TL1A Binding Level (Late) [4]: 83 RU
TL1A Binding Level (Early) [5]: 92 RU
B16: 320-435 (antibody, human IgG1, name in Kabat numbering, V domains shown)
VH: B1 VH with S31L
VL: B1 VL with H91Q
notes: human IgG1, lambda

Antibody IC50, TL1A induced caspase potency assay in TF-1 cells [1]: 0.02 µg/mL
Fold improvement over 320-179, TL1A induced caspase potency assay in TF-1 cells [1]: 3 fold
TL1A Binding Level (Late) [2]: 149 RU
TL1A Binding Level (Early) [3]: 160 RU
B17: 320-318 (antibody, human IgG1, name in Kabat numbering, V domains shown)
VH: B1 VH
VL: B1 VL with H91Q, S92A
notes: human IgG1, lambda

TL1A Binding Level (Late) [4]: 113 RU
TL1A Binding Level (Early) [5]: 125 RU
B18: 320-434 (antibody, human IgG1, name in Kabat numbering, V domains shown)
VH: B1 VH with S31K
VL: B1 VL with H91Q
notes: human IgG1, lambda

TL1A Binding Level (Late) [4]: 97 RU
TL1A Binding Level (Early) [5]: 108 RU
B19: 320-440 (antibody, human IgG1, name in Kabat numbering, V domains shown)
VH: B1 VH with Y32Q
VL: B1 VL with H91Q
notes: human IgG1, lambda

TL1A Binding Level (Late) [4]: 113 RU
TL1A Binding Level (Early) [5]: 124 RU
B20: 320-442 (antibody, human IgG1, name in Kabat numbering, V domains shown)
VH: B1 VH with Y32H
VL: B1 VL with H91Q
notes: human IgG1, lambda

TL1A Binding Level (Late) [2]: 27 RU
TL1A Binding Level (Early) [3]: 57 RU
B21: 320-359 (antibody, human IgG1, name in Kabat numbering, V domains shown)
VH: B1 VH
VL: B1 VL with H91Q, L97S
notes: human IgG1, lambda

TL1A Binding Level (Late) [2]: 70 RU
TL1A Binding Level (Early) [3]: 92 RU
B22: 320-371 (antibody, human IgG1, name in Kabat numbering, V domains shown)
VH: B1 VH
VL: B1 VL with H91Q, S98Y
notes: human IgG1, lambda

TL1A Binding Level (Late) [2]: 128 RU
TL1A Binding Level (Early) [3]: 141 RU
B23: 320-365 (antibody, human IgG1, name in Kabat numbering, V domains shown)
VH: B1 VH
VL: B1 VL with H91Q, S98Q
notes: human IgG1, lambda

TL1A Binding Level (Late) [4]: 109 RU
TL1A Binding Level (Early) [5]: 119 RU
B24: 320-437 (antibody, human IgG1, name in Kabat numbering, V domains shown)
VH: B1 VH with S31Y
VL: B1 VL with H91Q
notes: human IgG1, lambda

TL1A Binding Level (Late) [4]: 13 RU
TL1A Binding Level (Early) [5]: 37 RU
B25: 320-447 (antibody, human IgG1, name in Kabat numbering, V domains shown)
VH: B1 VH with D33S
VL: B1 VL with H91Q
notes: human IgG1, lambda

TL1A Binding Level (Late) [2]: 31 RU
TL1A Binding Level (Early) [3]: 62 RU
B26: 320-366 (antibody, human IgG1, name in Kabat numbering, V domains shown)
VH: B1 VH
VL: B1 VL with H91Q, S98D
notes: human IgG1, lambda

TL1A Binding Level (Late) [4]: 116 RU
TL1A Binding Level (Early) [5]: 126 RU
B27: 320-438 (antibody, human IgG1, name in Kabat numbering, V domains shown)
VH: B1 VH with Y32A
VL: B1 VL with H91Q
notes: human IgG1, lambda

TL1A Binding Level (Late) [2]: 60 RU
TL1A Binding Level (Early) [3]: 89 RU
B28: 320-369 (antibody, human IgG1, name in Kabat numbering, V domains shown)
VH: B1 VH
VL: B1 VL with H91Q, S98L
notes: human IgG1, lambda

Antibody IC50, TL1A induced caspase potency assay in TF-1 cells [1]: 0.02 µg/mL
Fold improvement over 320-179, TL1A induced caspase potency assay in TF-1 cells [1]: 1 fold
TL1A Binding Level (Late) [2]: 154 RU
TL1A Binding Level (Early) [3]: 163 RU
B29: 320-345 (antibody, human IgG1, name in Kabat numbering, V domains shown)
VH: B1 VH
VL: B1 VL with H91Q, G95K
notes: human IgG1, lambda

TL1A Binding Level (Late) [4]: 59 RU
TL1A Binding Level (Early) [5]: 76 RU
B30: 320-449 (antibody, human IgG1, name in Kabat numbering, V domains shown)
VH: B1 VH with D33H
VL: B1 VL with H91Q
notes: human IgG1, lambda

TL1A Binding Level (Late) [4]: 8 RU
TL1A Binding Level (Early) [5]: 18 RU
B31: 320-446 (antibody, human IgG1, name in Kabat numbering, V domains shown)
VH: B1 VH with D33A
VL: B1 VL with H91Q
notes: human IgG1, lambda
